One assay relates to MDCKII-ΔMRP1 cells. The experiment in a line: Immunolocalization of L0 co-expressed with ΔMRP1 in MDCKII monolayers (rescue to plasma membrane). The class given is cell-based. The conditions noted are these: pool of puromycin resistant MDCKII-ΔMRP1 cells. From the text: L0 was detected by indirect immunofluorescence with mAb R1 (green color, light signal in the lateral membrane). […] The arrow head indicates the position where the section was made. Nucleic acids were counterstained with propidium iodide (red signal).
For expression of MRP1 variants in MDCKII cells, the L0MDR1 chimera, ΔMRP1, and MRP1Δ(223-232) were inserted as blunt-end fragments into the retroviral vector pCMV-neo as described [Bakos É et al, (1998), see above]. For co-expression experiments the L0 fragment was cloned into the pBabe-Puro-CMV vector (kindly provided by Dr. J. Wijnholds, The Netherlands Cancer Institute, Amsterdam, The Netherlands). This vector was generated by cloning the blunt-ended HindIII fragment from pCMV-neo (containing the CMV early promoter) into the blunt-ended BamHI site of the pBabe-puro vector [Morgenstern J. P., and Land, H. (1990) Nucleic Acids Res. 18, 3587-3596]. Cells were retrovirally-transduced as described before [Evers, R. Kool, M., van Deemter, L., Janssen, H., Calafat, J., Oomen, L. C., Paulusma, C. C., Oude Elferink R. P., Baas, F., Schinkel, A. H., and Borst P. (1998) J. Clin Invest. 101, 1310-1319]. MDCKII cells stably transduced with the pBabe-Puro or pCMV-neo vector were selected for 4-6 days in medium containing puromycin (3 μg/ml) or for 7 days in medium containing G-418 (800 μg/ml), respectively. […]

In another assay the target is T1, ΔMRP1 (Homo sapiens, UniProt P33527).
T1 construct: An N-terminally truncated MRP1 (amino acids 281-1531); made in house; host or cells: baculovirus-infected Sf9 cells, membrane vesicles
T1 sequence (P33527 281-1531, stated change not applied): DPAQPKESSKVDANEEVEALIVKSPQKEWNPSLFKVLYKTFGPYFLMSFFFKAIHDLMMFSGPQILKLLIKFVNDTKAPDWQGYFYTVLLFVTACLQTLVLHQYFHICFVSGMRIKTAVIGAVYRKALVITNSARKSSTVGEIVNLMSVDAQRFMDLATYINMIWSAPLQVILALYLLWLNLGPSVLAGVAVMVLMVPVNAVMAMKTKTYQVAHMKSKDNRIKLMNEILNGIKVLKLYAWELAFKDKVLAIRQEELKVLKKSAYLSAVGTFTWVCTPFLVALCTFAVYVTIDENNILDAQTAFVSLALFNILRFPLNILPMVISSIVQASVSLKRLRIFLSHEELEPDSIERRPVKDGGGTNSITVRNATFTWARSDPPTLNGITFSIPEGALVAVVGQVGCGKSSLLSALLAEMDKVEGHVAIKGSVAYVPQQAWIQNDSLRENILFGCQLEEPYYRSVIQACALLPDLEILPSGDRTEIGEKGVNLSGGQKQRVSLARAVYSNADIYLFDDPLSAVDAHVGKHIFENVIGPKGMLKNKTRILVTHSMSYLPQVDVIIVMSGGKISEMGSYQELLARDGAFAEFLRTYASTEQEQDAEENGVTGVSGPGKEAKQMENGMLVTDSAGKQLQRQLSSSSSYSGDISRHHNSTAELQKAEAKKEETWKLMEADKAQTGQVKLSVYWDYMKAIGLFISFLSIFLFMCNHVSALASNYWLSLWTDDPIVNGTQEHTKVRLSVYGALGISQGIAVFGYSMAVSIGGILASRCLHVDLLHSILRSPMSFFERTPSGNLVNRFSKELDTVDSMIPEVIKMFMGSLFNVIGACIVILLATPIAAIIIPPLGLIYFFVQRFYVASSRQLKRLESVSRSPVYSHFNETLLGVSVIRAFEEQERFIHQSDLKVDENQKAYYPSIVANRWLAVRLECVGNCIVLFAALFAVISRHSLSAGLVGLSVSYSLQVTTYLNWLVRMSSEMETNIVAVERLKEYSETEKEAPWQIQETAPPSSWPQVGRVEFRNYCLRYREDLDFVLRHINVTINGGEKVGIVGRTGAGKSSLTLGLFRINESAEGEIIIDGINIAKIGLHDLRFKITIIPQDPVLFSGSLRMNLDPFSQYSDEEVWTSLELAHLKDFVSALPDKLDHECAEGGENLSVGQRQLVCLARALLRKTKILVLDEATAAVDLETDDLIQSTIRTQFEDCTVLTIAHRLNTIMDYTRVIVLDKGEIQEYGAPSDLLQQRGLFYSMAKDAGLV
Briefly: Restoration of ΔMRP1 transport activity by L0 peptides (vesicular LTC4 / NEM-GS uptake, Sf9 membranes). It is filed as biochemical. The protocol: The obtained pCLTRX-L0 vector was cloned to E. coli BL21 (DE3) cells, which in turn were grown in TYBG antibiotic broth (10 g tryptone, 10 g yeast extract, 4 g glucose, pH 7.2, 100 μg/ml ampicillin, 25 μg/ml kanamycine) at 37° C. When OD(600) exceeded 1.1 cells were pelleted by centrifugation, suspended in M9 medium, the incubated at 28° C. for 30 min. Afterwards, expression was induced by IPTG for 2 hours. When the induction was finished, cells were pelleted by centrifugation and the pellet was washed with 20% sacharose, then suspended in a solution comprising 20% agarose, 10 mM Tris and 0.1 μg/ml lysosyme (pH 7.2) and incubated for 30 min at 4° C. then sonicated. The lysed cells were pelleted by centrifugation (20000 g, 20 min). The so obtained lysate was used in the further experiments, for studying the restoration of the transport activity.
In order to correctly determine the transport function of the different MRP1 proteins, we estimated the relative amount of transport-competent inside-out vesicles in the Sf9 membrane preparations [Bakos É. et al, (1998), see above], and corrected the transport rates according to the relative MRP1 expression levels, as determined by immunoblotting.

The next assay has as its target MRP1 variants (Homo sapiens, UniProt P33527). The experiment in a line: Vanadate-dependent nucleotide trapping by MRP1 variants in Sf9 membranes. The conditions noted are these: L0 peptide co-expressed with ΔMRP1.

B1: L0: amino acids 204-281, representing the N-terminal linker region of MRP1, expressed as a separate peptide (protein, UniProt P33527 204-281, looked up, fragment)
chain: DPNPCPESSASFLSRITFWWITGLIVRGYRQPLEGSDLWSLNKEDTSEQVVPVLVKNWKKECAKTRKQPVKVVYSSKD
modifications: L0 linker region
notes: amino acids 204-281, representing the N-terminal linker region of MRP1, expressed as a separate peptide
For B1, in the assay on MDCKII-ΔMRP1 cells, the “localization of L0 (mAb R1 staining)” value is listed as “clear lateral plasma membrane staining”. The “uptake of LTC4 on co-expression with ΔMRP1” value in the assay with ΔMRP1 (at 50 nM LTC4, Sf9 vesicles) is listed as “about 90 % of MRP1”. Further, the “uptake of NEM-GS on co-expression with ΔMRP1” value with ΔMRP1 (at 50 μM NEM-GS, Sf9 vesicles) is reported as “about 40 % of MRP1”. Besides, the “restoration of nucleotide trapping of ΔMRP1” value in the assay with MRP1 variants is “the full activity was restored”.

The record behind these values is patent publication US20030170730A1, “Assay method, peptides and reagent kits for testing mrp-specific inhibitors” (priority 2000, published 2003).
